Consider one protein from article PMC4395482 (The Journal of Cell Biology, 2015).

This series concerns the molecule itself. Briefly: crystal structure.

B1: hSac2 domain of human Sac2 (aa 593–760) (domain or fragment, UniProt Q9Y2H2 593-760, looked up)
chain: RSHQELISQLLQSYMKLLLPDDEKFHGGWALIDCDPSLIDATHRDVDVLLLLSNSAYYVAYYDDEVDKVNQYQRLSLENLEKIEIGPEPTLFGKPKFSCMRLHYRYKEASGYFHTLRAVMRNPEEDGKDTLQCIAEMLQITKQAMGSDLPIIEKKLERKSSKPHEDII
modifications: selenomethionine (selenomethionine protein crystals)
As a reminder, the stoichiometry N is a count of units in the complex or per binding partner. Turning to B1, the “stoichiometry N” value was 2.
